Source: paper PMC11960969, “Mdga2 deficiency leads to an aberrant activation of BDNF/TrkB signaling that underlies autism-relevant synaptic and behavioral changes in mice” (PLOS Biology, 2025)

Tested on: cell membrane localization in HeLa cells and mouse primary neurons
Assay: Immunostaining of membrane localization of MDGA2, ΔMAM or V930I in transfected cells
Format: cell-based
Settings: HeLa cells transfected 24 h, S3E Fig
Text: Fig 7 The autism spectrum disorder (ASD)-associated MDGA2 V930I mutation impairs the MDGA2-TrkB interaction and MDGA2’s inhibitory effect on the tyrosine kinase B (TrkB) signaling. (A) Schematic depiction of the WT human MDGA2 and its V930I mutation constructs that are tagged with GFP. (B, C) HeLa cells (B) and mouse primary neurons (C) transfected with MDGA2 (green) or V930I (green) were immunostained with an antibody against the plasma membrane protein ATP1A1 (red) and then observed by confocal microscopy. Scale bars = 10 μm. (D) Cell surface expression of WT MDGA2 or V930I in transfected HeLa cells was determined by surface biotinylation assays. Biotinylated (cell surface) protein levels were quantified by densitometry and normalized to total protein levels for comparison (WT MDGA2 levels were set to one arbitrary unit). n = 4 experimental replicates. (E) Mouse primary neurons were transfected with MDGA2, V930I, or ΔMAM. […] Immunoprecipitated protein levels were quantified by densitometry, normalized to respective inputs, and compared to those transfected with MDGA2 (set to one arbitrary units). n = 4 experimental replicates. […] Levels of phosphorylated proteins were quantified by densitometry, normalized to respective total protein levels and compared to controls (set to one arbitrary units). n = 6 experimental replicates. […]

B1: MDGA2-ΔMAM: truncated form of MDGA2 lacking its MAM domain (protein)
chain: PPTVRIVHSGLACNIEEERYSERVYTIREGETLELTCLVTGHPRPQIRWTKTAGSASDRFQDSSVFNETLRITNIQRHQGGRYYCKAENGLGSPAIKSIRVDVYYLDDPVVTVHQSIGEAKEQFYYERTVFLRCVANSNPPVRYSWRRGQEVLLQGSDKGVEIYEPFFTQGETKILKLKNLRPQDYANYSCIASVRNVCNIPDKMVSFRLSNKTASPSIKLLVDDPIVVNPGEAITLVCVTTGGEPAPSLTWVRSFGTLPEKTVLNGGTLTIPAITSDDAGTYSCIANNNVGNPAKKSTNIIVRALKKGRFWITPDPYHKDDNIQIGREVKISCQVEAVPSEELTFSWFKNGRPLRSSERMVITQTDPDVSPGTTNLDIIDLKFTDFGTYTCVASLKGGGISDISIDVNISSSTVPPNLTVPQEKSPLVTREGDTIELQCQVTGKPKPIILWSRADKEVAMPDGSMQMESYDGTLRIVNVSREMSGMYRCQTSQYNGFNVKPREALVQLIVQYPPAVEPAFLEIRQGQDRSVTMSCRVLRAYPIRVLTYEWRLGNKLLRTGQFDSQEYTEYAVKSLSNENYGVYNCSIINEAGAGRCSFLVTGKAYAPEFYYDTYNPVWQNRHRVYSYSLQWTQMNPDAVDRIVAYRLGIRQAGQQRWWEQEIKINGNIQKGELITYNLTELIKPEAYEVRLTPLTKFGEGDSTIRVIKYSAPVNPHLREQDLATKNSVD
modifications: left off: GFP, end not stated, kept
notes: truncated form of MDGA2 lacking its MAM domain
cell membrane localization: no effect on its cell membrane localization
